Source: patent US20150118238A1

Biological target: RON on RON-transfected NIH 3T3 cells (UniProt Q04912)
Assay: IHC on FFPE RON-transfected NIH3T3 cells, Aperio Positive Pixel Count

Relative Positive Pixel Intensity Score: 221
Substance: EP1132Y antibody (Anti-RON)
